{"source": "paper PMC6911004", "about": "“Fragment-based screening identifies molecules targeting the substrate-binding ankyrin repeat domains of tankyrase” (Scientific Reports, 2019)", "biological_target": "T1, TNKS2 ARC5 (Homo sapiens, UniProt Q9H2K2)", "T1 construct": "followed by TNKS2 ARC5 (1 μL, 100 μM stock); His6-GST; made in house; host or cells: E. coli", "T1 sequence (Q9H2K2 whole entry, looked up)": "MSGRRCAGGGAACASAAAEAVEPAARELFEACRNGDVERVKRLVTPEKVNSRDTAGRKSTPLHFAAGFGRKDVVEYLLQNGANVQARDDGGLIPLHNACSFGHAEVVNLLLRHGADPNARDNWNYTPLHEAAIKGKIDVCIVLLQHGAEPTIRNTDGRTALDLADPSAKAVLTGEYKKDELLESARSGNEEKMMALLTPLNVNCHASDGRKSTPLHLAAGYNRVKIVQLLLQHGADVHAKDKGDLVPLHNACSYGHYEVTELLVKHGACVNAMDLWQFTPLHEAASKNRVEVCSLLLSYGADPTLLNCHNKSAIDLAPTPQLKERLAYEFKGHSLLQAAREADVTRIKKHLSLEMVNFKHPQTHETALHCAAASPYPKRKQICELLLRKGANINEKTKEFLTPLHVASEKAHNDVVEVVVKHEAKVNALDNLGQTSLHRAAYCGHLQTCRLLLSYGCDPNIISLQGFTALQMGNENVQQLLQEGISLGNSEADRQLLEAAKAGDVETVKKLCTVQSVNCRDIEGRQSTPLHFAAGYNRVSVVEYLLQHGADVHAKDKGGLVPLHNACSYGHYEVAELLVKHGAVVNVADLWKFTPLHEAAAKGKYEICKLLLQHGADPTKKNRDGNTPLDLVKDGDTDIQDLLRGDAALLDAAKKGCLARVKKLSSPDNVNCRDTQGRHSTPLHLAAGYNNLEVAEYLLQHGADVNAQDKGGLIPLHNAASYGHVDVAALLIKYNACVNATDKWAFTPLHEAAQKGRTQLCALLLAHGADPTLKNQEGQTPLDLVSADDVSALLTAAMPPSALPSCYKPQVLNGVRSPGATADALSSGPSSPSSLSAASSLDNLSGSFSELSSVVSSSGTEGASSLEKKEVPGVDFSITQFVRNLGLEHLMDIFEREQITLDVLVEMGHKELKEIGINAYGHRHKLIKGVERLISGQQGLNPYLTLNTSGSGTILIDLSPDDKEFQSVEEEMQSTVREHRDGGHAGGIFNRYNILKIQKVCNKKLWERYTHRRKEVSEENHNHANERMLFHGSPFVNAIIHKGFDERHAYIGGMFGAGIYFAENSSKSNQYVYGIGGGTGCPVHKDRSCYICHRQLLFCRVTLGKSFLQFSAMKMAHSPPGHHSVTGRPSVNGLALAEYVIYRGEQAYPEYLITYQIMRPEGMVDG", "assay": "Differential scanning fluorimetry (DSF, thermal shift)", "assay_type": "binding", "details": "ARC 20 μM + 3BP2 TBM peptide 200 μM, inflection point method", "experimental": "Therefore, we chose TNKS2 ARC5 for screening by DSF, anticipating the largest signal window for measuring changes in Tm upon fragment binding.\nWe screened 1869 compounds in duplicate at a concentration of 500 μM, which we considered a reasonable compromise between having a sufficiently high concentration to identify weak binders while minimising the likelihood of false positives through fragment precipitation/aggregation and non-specific binding. The final DMSO concentration was 5%. We calculated melting temperatures using both the inflection point and the maximum peak of first derivative data methods. Both methods generally agreed, unless the melt curve was biphasic or misshapen, with slightly lower variability for the […] Tm determination method (see Materials and Methods for experimental and analysis details).\nWe determined the melting temperature for the unbound ARC (Tm, 0) from the mean of 12 reference melting curves per plate, with 5% DMSO only. We calculated the change in melting temperature (ΔTm) by subtracting the mean Tm, 0 from Tm, compound. We tested compounds in duplicate, defining fragments as hits if they conferred a ΔTm outside two standard deviations (2σ) from the mean, in one or both replicates. To check for consistency between plates, we ran triplicate peptide controls; however, we excluded peptide ΔTm values from the calculation of the mean ΔTm to avoid skewing the results. We observed mean ΔTm values (IP/1st derivative methods) of −0.127/−0.331 °C and σ as 0.997/1.19 °C. A hit cut-off of 2σ gave absolute shifts of +1.87/+2.05 °C for compounds that stabilised and −2.13/−2.71 °C for compounds that destabilised the ARC (Fig. 2B).\nFor the screen, a C1000 thermal cycler (Bio-Rad) was used to record melt curves. SYPRO Orange was purchased as a 5000 × stock in DMSO from Sigma Aldrich. The ICR fragment library was available as 100 mM stocks in DMSO, and dispensed (25 nL) using an ECHO acoustic liquid handling system into white 384-well PCR plates (Framestar, 4titude). Wells were backfilled with DMSO (225 nL). Buffer (2.75 μL, 25 mM HEPES-NaOH pH 7.5, 100 mM NaCl, 2 mM TCEP) was added, followed by TNKS2 ARC5 (1 μL, 100 μM stock) and then SYPRO orange dye (1 μL, 25×). The plate was centrifuged after the addition of each reagent (1 min, 1000 × g). Final assay concentrations were as follows: TNKS2 ARC5 (20 μM); fragment (500 μM); SYPRO Orange dye (5×); DMSO (5% v/v) in a total volume of 5 μL. Peptide control wells (3BP2 TBM 16-mer, 200 μM, sequence LPHLQRSPPDGQSFRSW with C-terminal tryptophan added for photometric concentration measurements, the N-terminus acetylated and the C-terminus amide-capped) were plated in triplicate, and there were 12 blank wells per plate, with DMSO only (250 nL, 5% v/v). Melt curves were recorded from 20–95 °C, with the temperature ramped by 0.5 °C every 15 s. Data were analysed using Vortex (Dotmatics) software and melting temperatures calculated from both the inflection point and the maximum peak of 1st-derivative data. Data points were excluded if the melt curve was poor, i.e., if there was no fluorescence signal above baseline, high fluorescence intensity throughout, or if the melt curve was shallow (<1000 rfu difference between baseline and peak maximum). The unbound melting temperature was determined from the mean of 12 reference melting curves, with 5% DMSO only. The change in melting temperature (ΔTm) was calculated by subtracting the mean Tm, 0 from Tm, compound. Compounds were tested in duplicate, and fragments were defined as hits if they gave a ΔTm outwith 2 σ from the mean in one or both replicates.\nFor the experiment shown in Fig. 2A, ARC and 3BP2 TBM peptide concentrations were 20 and 200 μM, respectively, in 50 mM HEPES-NaOH pH 7.5, 100 mM NaCl, 2 mM TCEP and a total volume of 25 μL. SYPRO Orange was added at 5×. Data were recorded from 4–95 °C, with the temperature ramped by 0.5 °C every 15 s, using a CFX384 thermal cycler (Bio-Rad). […]"}
{"sequence": "LPHLQRSPPDGQSFRSW [3BP2 16-mer peptide, 16-mer TBM peptide derived from 3BP2, W added for A280, N-terminus acetylated, C-terminus amide-capped; positive control, reference compound]", "values": [{"measurement": "ΔTm", "result": 4.14, "unit": "°C"}]}
